Patent US9688719B2, “Glycogen synthase kinase-3 inhibitors” (Ramot at Tel-Aviv University Ltd., priority 2011, dated 2017)
Square brackets hold non-standard residues; d marks the D form. Ends that are not written are not given here. * marks the point of attachment. Myristoyl = CCCCCCCCCCCCCC(=O)*; pS = N[C@@H](COP(=O)(O)O)C(=O)O

Key:
[1] = tested on: GSK-3; assay: Inhibition of cellular GSK-3 in SH-SY5Y cells (Western blot); format: cell-based, human; conditions: 20 or 40 μM, 5 hours, FIG. 8
Method: In an additional assay, human neuroblastoma SH-SY5Y cells, were treated with L803-mts (as set forth in SEQ ID NO:5) or L803F-mts (as set forth in SEQ ID NO:12) (20 or 40 μM) for 5 hours. Cells were collected and lysed in ice-cold buffer G (20 mM Tris pH 7.5, 10 mM β-glycerophosphate, 10% glycerol, 1 mM EGTA, 1 mM EDTA, 50 mM NaF, 5 mM sodium pyrophosphate, 0.5 mM orthovanadate, 1 mM benzamidine, 5 μg/ml leupeptin, 25 μg/ml aprotinin, 5 μg/ml pepstatin, and 0.5% Triton X100). Equal amounts of proteins (30 μg) were subjected to gel electrophoresis, transferred to nitrocellulose membranes, and immunoblotted with the anti-β-catenin antibody or anti-phospho-HSF-1 antibody (heat shock factor-1)(ser 303). FIG. 8 presents the β-catenin levels and phosphorylation levels of HSF-1 (ser 303) as determined by Western blot analysis using specific antibodies, with non-treated cells indicated as control (Con).

[2] = tested on: GSK-3β mutants Q89A, N95A, R92A, K94A, F93Y and TM (91-93); assay: In vitro kinase assay, inhibition of other GSK-3β mutants; format: biochemical, human; conditions: data not shown
Method: (§1) HEK-293 cells were grown in Dulbecco's Modified Eagle's Medium (DMEM), supplemented with 10% fetal calf serum (FCS), 2 mM glutamine, 100 units/ml penicillin, and 100 μg/ml streptomycin. HEK-293 cells were transiently transfected with indicated constructs, using calcium phosphate method as described [Ilouz et al. (2006) supra]. Cells were lysed in ice-cold buffer G (20 mM Tris-HCl, pH 7.5, 10 mM β-glycerophosphate, 10% glycerol, 1 mM EGTA, 1 mM EDTA, 50 mM NaF, 5 mM sodium pyrophosphate, 0.5 mM orthovanadate, 1 mM benzamidine, 10 μg/ml leupeptin, 5 μg/ml aprotinin, 1 μg/ml pepstatin, and 0.5% Triton X100). Cell extracts were centrifuged for 30 minutes at 15,000×g. […]
(§2) The GSK-3β proteins (WT or mutants) were incubated with indicated substrate in a reaction mixture (50 mM Tris-HCl, pH 7.3, 10 mM magnesium acetate, and 0.01% β-mercaptoethanol) together with 100 μM ^32P[γ-ATP] […] Reactions were stopped by spotting on p81 paper (Whatman) washed with phosphoric acid, and counted for radioactivity as previously described [Ilouz et al. (2006) supra]. In assays from cells overexpressing GSK-3 proteins, the activity of the endogenous GSK-3 that was determined in cells transfected with the pCMV4 vector was subtracted from the activity values obtained for WT and mutants. […]

[3] = target: T1, GSK-3β F93A mutant (Homo sapiens, UniProt P49841, F93A); assay: In vitro kinase assay, inhibition of the F93A mutant; format: biochemical; conditions: FIGS. 2B, 2C
T1 construct: made in house; host or cells: HEK-293 (transient transfection, pCMV4; partial purification on DE-52)
T1 sequence (P49841 1-433 isoform P49841-2 F93A): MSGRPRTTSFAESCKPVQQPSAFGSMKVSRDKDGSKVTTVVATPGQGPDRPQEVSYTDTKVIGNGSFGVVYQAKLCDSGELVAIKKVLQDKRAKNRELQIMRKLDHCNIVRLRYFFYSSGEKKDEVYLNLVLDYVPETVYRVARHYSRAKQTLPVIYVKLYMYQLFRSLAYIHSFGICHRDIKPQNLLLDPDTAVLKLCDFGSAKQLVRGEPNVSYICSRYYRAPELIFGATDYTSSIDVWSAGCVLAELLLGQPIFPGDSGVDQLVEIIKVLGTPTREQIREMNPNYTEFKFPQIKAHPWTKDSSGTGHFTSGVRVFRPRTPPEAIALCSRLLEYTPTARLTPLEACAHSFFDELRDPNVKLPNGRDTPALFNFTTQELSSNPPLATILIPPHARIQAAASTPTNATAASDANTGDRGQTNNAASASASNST
Method: as §1, §2

[4] = target: GSK-3β (Homo sapiens, UniProt P49841)
Sequence of GSK-3β (P49841 1-433 isoform P49841-2): as the sequence (P49841 1-433 isoform P49841-2 F93A) above, with A93F counted along it
Method: (§3) The GSK-3β proteins (WT or mutants) were incubated with indicated substrate in a reaction mixture (50 mM Tris-HCl, pH 7.3, 10 mM magnesium acetate, and 0.01% β-mercaptoethanol) together with 100 μM ^32P[γ-ATP] (0.5 μCi/assay) for 15 minutes. Reactions were stopped by spotting on p81 paper (Whatman) washed with phosphoric acid, and counted for radioactivity as previously described [Ilouz et al. (2006) supra]. In assays from cells overexpressing GSK-3 proteins, the activity of the endogenous GSK-3 that was determined in cells transfected with the pCMV4 vector was subtracted from the activity values obtained for WT and mutants.
Purified GSK-3β was subjected to in vitro kinase assays using pIRS-1, p9CREB, and pGS-1 substrate in the presence or absence of L803-mts (100 μM).

[5] = tested on: pGS-1; assay: In vitro kinase assay of GSK-3β mutants with substrate pGS-1; format: biochemical; conditions: mean ± SEM; WT set to 100%
Method: (§4) HEK-293 cells were grown in Dulbecco's Modified Eagle's Medium (DMEM), supplemented with 10% fetal calf serum (FCS), 2 mM glutamine, 100 units/ml penicillin, and 100 μg/ml streptomycin. HEK-293 cells were transiently transfected with indicated constructs, using calcium phosphate method as described [Ilouz et al. (2006) supra]. Cells were lysed in ice-cold buffer G (20 mM Tris-HCl, pH 7.5, 10 mM β-glycerophosphate, 10% glycerol, 1 mM EGTA, 1 mM EDTA, 50 mM NaF, 5 mM sodium pyrophosphate, 0.5 mM orthovanadate, 1 mM benzamidine, 10 μg/ml leupeptin, 5 μg/ml aprotinin, 1 μg/ml pepstatin, and 0.5% Triton X100). Cell extracts were centrifuged for 30 minutes at 15,000×g. Supernatants were collected, and equal amounts of proteins were boiled with SDS sample buffer and subjected to gel electrophoresis (7.5-12% polyacrylamide gel), transferred to nitrocellulose membranes, and immunoblotted with indicated antibodies. For partial purification, cells were lysed in buffer H (20 mM Tris, pH 7.3, 1 mM EGTA, 1 mM EDTA, 1 mM orthovanadate, 25 μg/ml leupeptin, 25 μg/ml aprotinin, and 25 μg/ml pepstatin A, 500 nM microcystine LR, and 0.25% Triton X100). The lysates were centrifuged at 15,000×g. The resulting supernatants were passed through DE-52 (Whatman, Maidstone, England) mini-columns that were equilibrated with buffer H. GSK-3β proteins were eluted with the same buffer containing 0.02 M NaCl. Equal amounts of proteins were used for in vitro kinase assays.
as §3
(§5) The GSK-3β mutants were partially purified by ion exchange chromatography, and their abilities to phosphorylate peptide substrates were tested in in vitro kinase assays. The substrates were: pIRS-1, p9CREB, and pGS-1, phosphorylated peptides derived from the insulin receptor substrate-1 (IRS-1), cAMP responsive element binding protein (CREB), and glycogen synthase, respectively.

[6] = tested on: p9CREB; assay: In vitro kinase assay of GSK-3β mutants with substrate p9CREB; format: biochemical; conditions: mean ± SEM; WT set to 100%
Method: as §4, §3, §5

[7] = tested on: pIRS-1; assay: In vitro kinase assay of GSK-3β mutants with substrate pIRS-1; format: biochemical; conditions: mean ± SEM; WT set to 100%
Method: as §4, §3, §5

| Molecule | Substrate phosphorylation (% of WT GSK-3β), pGS-1 [5] | Substrate phosphorylation (% of WT GSK-3β), p9CREB [6] | Substrate phosphorylation (% of WT GSK-3β), pIRS-1 [7] | other results |
| --- | --- | --- | --- | --- |
| Myristic-Gly-Lys-Glu-Ala-Pro-Pro-Ala-Pro-Pro-Gln-phosphorylated Ser-Pro-Phe (Myristoyl-GKEAPPAPPQ[pS]PF) [L803F-mts] |  |  |  | phosphorylation levels of HSF-1 (serine 303) [1]: reduced the phosphorylation levels; β-catenin levels [1]: elevation in β-catenin levels |
| L803-mts: L803 in which myristic acid was attached to its N-terminal; cell permeable variant (Myristoyl-GKEAPPAPPQ[pS]P) |  |  |  | inhibition of other GSK-3β mutants [2]: inhibit all other mutants; inhibition of substrate phosphorylation by F93A [3]: did not inhibit; competition with substrates pIRS-1, p9CREB, pGS-1 ([4]; purified GSK-3β, 100 μM, FIG. 2A): competes with various substrates |
| KEAPPAPPQS(p)P (KEAPPAPPQ[pS]P) [L803] |  |  |  | inhibition of other GSK-3β mutants [2]: inhibited all other mutants; inhibition of substrate phosphorylation by F93A [3]: did not inhibit |
| Lys-Glu-Ala-Pro-Pro-Ala-Pro-Pro-Gln-phosphorylated Ser-Pro-Phe [L803F] |  |  |  | inhibition of substrate phosphorylation at increasing concentrations, compared to L803 ([4]; FIG. 7): improved activity |
| K94A: GSK-3β mutant, K94 replaced by alanine (protein, GSK-3 beta, K94A mutant, GSK-3β mutant, K94 replaced by alanine) MSGRPRTTSFAESCKPVQQPSAFGSMKVSRDKDGSKVTTVVATPGQGPDRPQEVSYTDTKVIGNGSFGVVYQAKLCDSGELVAIKKVLQDKRFANRELQIMRKLDHCNIVRLRYFFYSSGEKKDEVYLNLVLDYVPETVYRVARHYSRAKQTLPVIYVKLYMYQLFRSLAYIHSFGICHRDIKPQNLLLDPDTAVLKLCDFGSAKQLVRGEPNVSYICSRYYRAPELIFGATDYTSSIDVWSAGCVLAELLLGQPIFPGDSGVDQLVEIIKVLGTPTREQIREMNPNYTEFKFPQIKAHPWTKDSSGTGHFTSGVRVFRPRTPPEAIALCSRLLEYTPTARLTPLEACAHSFFDELRDPNVKLPNGRDTPALFNFTTQELSSNPPLATILIPPHARIQAAASTPTNATAASDANTGDRGQTNNAASASASNST | 19 ± 14 % of WTGSK-3β | 71 ± 4 % of WTGSK-3β | 52 ± 19 % of WTGSK-3β |  |
| R92A: GSK-3β mutant, R92 replaced by alanine (protein, GSK-3 beta, R92A mutant, GSK-3β mutant, R92 replaced by alanine) MSGRPRTTSFAESCKPVQQPSAFGSMKVSRDKDGSKVTTVVATPGQGPDRPQEVSYTDTKVIGNGSFGVVYQAKLCDSGELVAIKKVLQDKAFKNRELQIMRKLDHCNIVRLRYFFYSSGEKKDEVYLNLVLDYVPETVYRVARHYSRAKQTLPVIYVKLYMYQLFRSLAYIHSFGICHRDIKPQNLLLDPDTAVLKLCDFGSAKQLVRGEPNVSYICSRYYRAPELIFGATDYTSSIDVWSAGCVLAELLLGQPIFPGDSGVDQLVEIIKVLGTPTREQIREMNPNYTEFKFPQIKAHPWTKDSSGTGHFTSGVRVFRPRTPPEAIALCSRLLEYTPTARLTPLEACAHSFFDELRDPNVKLPNGRDTPALFNFTTQELSSNPPLATILIPPHARIQAAASTPTNATAASDANTGDRGQTNNAASASASNST | 41 ± 14 % of WTGSK-3β | 49 ± 19 % of WTGSK-3β | 60 ± 3 % of WTGSK-3β |  |
| D90A: GSK-3β mutant, D90 replaced by alanine (protein, GSK-3 beta, D90A mutant, GSK-3β mutant, D90 replaced by alanine) MSGRPRTTSFAESCKPVQQPSAFGSMKVSRDKDGSKVTTVVATPGQGPDRPQEVSYTDTKVIGNGSFGVVYQAKLCDSGELVAIKKVLQAKRFKNRELQIMRKLDHCNIVRLRYFFYSSGEKKDEVYLNLVLDYVPETVYRVARHYSRAKQTLPVIYVKLYMYQLFRSLAYIHSFGICHRDIKPQNLLLDPDTAVLKLCDFGSAKQLVRGEPNVSYICSRYYRAPELIFGATDYTSSIDVWSAGCVLAELLLGQPIFPGDSGVDQLVEIIKVLGTPTREQIREMNPNYTEFKFPQIKAHPWTKDSSGTGHFTSGVRVFRPRTPPEAIALCSRLLEYTPTARLTPLEACAHSFFDELRDPNVKLPNGRDTPALFNFTTQELSSNPPLATILIPPHARIQAAASTPTNATAASDANTGDRGQTNNAASASASNST | 83 ± 2 % of WTGSK-3β | 92 ± 21 % of WTGSK-3β | 88 ± 15 % of WTGSK-3β |  |
| K91A: GSK-3β mutant, K91 replaced by alanine (protein, GSK-3 beta, K91A mutant, GSK-3β mutant, K91 replaced by alanine) MSGRPRTTSFAESCKPVQQPSAFGSMKVSRDKDGSKVTTVVATPGQGPDRPQEVSYTDTKVIGNGSFGVVYQAKLCDSGELVAIKKVLQDARFKNRELQIMRKLDHCNIVRLRYFFYSSGEKKDEVYLNLVLDYVPETVYRVARHYSRAKQTLPVIYVKLYMYQLFRSLAYIHSFGICHRDIKPQNLLLDPDTAVLKLCDFGSAKQLVRGEPNVSYICSRYYRAPELIFGATDYTSSIDVWSAGCVLAELLLGQPIFPGDSGVDQLVEIIKVLGTPTREQIREMNPNYTEFKFPQIKAHPWTKDSSGTGHFTSGVRVFRPRTPPEAIALCSRLLEYTPTARLTPLEACAHSFFDELRDPNVKLPNGRDTPALFNFTTQELSSNPPLATILIPPHARIQAAASTPTNATAASDANTGDRGQTNNAASASASNST | 119 ± 5 % of WTGSK-3β | 161 ± 5 % of WTGSK-3β | 140 ± 18 % of WTGSK-3β |  |
